Reference: the supplement of paper PMC11246515
± gives the standard deviation of the averaged measurements.

Assay: total protein half-life in vivo (active degradation + dilution); higher = more stable protein
[1] = E. coli NCM3722 delta-clpP, growth: N-lim chemostat, doubling time 6 h
[2] = E. coli NCM3722 delta-hslV, growth: N-lim chemostat, doubling time 6 h
[3] = E. coli NCM3722 delta-lon, growth: N-lim chemostat, doubling time 6 h
[4] = E. coli NCM3722 delta-smpB, growth: N-lim chemostat, doubling time 6 h
[5] = wild type E. coli NCM3722, growth: C-lim chemostat, doubling time 3 h
[6] = wild type E. coli NCM3722, growth: C-lim chemostat, doubling time 6 h
[7] = wild type E. coli NCM3722, growth: C-lim chemostat, doubling time 12 h
[8] = wild type E. coli NCM3722, growth: N-lim chemostat, doubling time 6 h
[9] = wild type E. coli NCM3722, growth: N-lim chemostat, doubling time 12 h
[10] = wild type E. coli NCM3722, growth: P-lim chemostat, doubling time 6 h
[11] = E. coli NCM3722 delta-clpP delta-lon delta-hslV, growth: N-lim chemostat, doubling time 6 h
[12] = wild type E. coli NCM3722, growth: P-lim chemostat, doubling time 12 h

Row | Sequence | total protein half-life in vivo [1] | total protein half-life in vivo [2] | total protein half-life in vivo [3] | total protein half-life in vivo [4] | total protein half-life in vivo [5] | total protein half-life in vivo [6] | total protein half-life in vivo [7] | total protein half-life in vivo [8] | total protein half-life in vivo [9] | total protein half-life in vivo [10] | total protein half-life in vivo [11] | total protein half-life in vivo [12]
1 | MFHRLWTLIRKELQSLLREPQTRAILILPVLIQVILFPFAATLEVTNATIAIYDEDNGEHSVELTQRFARASAFTHVLLLKSPQEIRPTIDTQKALLLVRFPADFSRKLDTFQTAPLQLILDGRNSNSAQIAANYLQQIVKNYQQELLEGKPKPNNSELVVRNWYNPNLDYKWFVVPSLIAMITTIGVMIVTSLSVAREREQGTLDQLLVSPLTTWQIFIGKAVPALIVATFQATIVLAIGIWAYQIPFAGSLALFYFTMVIYGLSLVGFGLLISSLCSTQQQAFIGVFVFMMPAILLSGYVSPVENMPVWLQNLTWINPIRHFTDITKQIYLKDASLDIVWNSLWPLLVITATTGSAAYAMFRRKVM [P0AFP9] | 6.75 ± 1.4 h | > 8 h | 7.11 h | 5.25 ± 0.36 h | 3.51 h | 6.05 ± 0.27 h | 12.97 ± 0.071 h | 6.33 ± 0.16 h | 12.1 ± 1.1 h | 6.38 h |  | 
2 | MATFSLGKHPHVELCDLLKLEGWSESGAQAKIAIAEGQVKVDGAVETRKRCKIVAGQTVSFAGHSVQVVA [P0AAS7] | 3.39 ± 0.29 h | 2.72 ± 0.6 h | 4.18 ± 1.2 h | 2.3 ± 0.15 h | 2.4 ± 0.59 h | 4 ± 0.91 h | 4.46 ± 0.44 h | 2.71 ± 0.057 h | 3.68 ± 0.15 h | 1.97 ± 0.26 h | 4.09 ± 0.36 h | 3.576 ± 0.012 h
3 | MIALIQRVTRASVTVEGEVTGEIGAGLLVLLGVEKDDDEQKANRLCERVLGYRIFSDAEGKMNLNVQQAGGSVLVVSQFTLAADTERGMRPSFSKGASPDRAEALYDYFVERCRQQEMNTQTGRFAADMQVSLVNDGPVTFWLQV [P0A6M4] | 3.81 ± 0.19 h | 3.859 ± 0.026 h | 4.26 ± 0.52 h | 4.06 ± 0.17 h |  | 5.48 ± 0.15 h | 10 ± 0.87 h | 3.84 ± 0.29 h | 6.66 ± 0.43 h | 5.52 ± 0.24 h | 4.67 ± 0.29 h | 11 ± 0.22 h
4 | MARKTKPLTDTEIKAAKPKDADYQLYDGDGLTLLIKSSGSKLWQFRYYRPLTKQRTKQSFGAYPAVSLSDARKLRAESKVLLAKDIDPQEHQKEQVRNSQEAKTNTFLLVAERWWNVKKTSVTEDYADDIWRSLERDIFPAIGDISITEIKAHTLVKAVQPVQARGALETVRRLCQRINEVMIYAQNTGLIDAVPSVNIGKAFEKPQKKNMPSIRPDQLPQLMHTMRTASISMSTRCLFMWQLLTITRPAEAAEARWDEIDFNASEWKIPAARMKMNRDHTVPLSDGALAILEMMKPLSGGREFIFPSRIKPNQPMNSQTVNAALKRAGLGGVLVSHGLRSIASTALNEEGFPPDVIEAALAHVDKNEVRRAYNRSDYLEQRRPMMQWWADLVKAADSGSIVLTHLSKIRLVG |  | 0.734 ± 0.064 h | 1.362 ± 0.0065 h | 0.777 ± 0.0083 h | 1.16 ± 0.22 h | 1.13 ± 0.079 h | 0.594 h | 1.7 ± 0.26 h | 0.847 h | 0.572 h | 5.38 ± 0.81 h | 1.64 ± 0.32 h
5 | MADYQGKNVVIIGLGLTGLSCVDFFLARGVTPRVMDTRMTPPGLDKLPEAVERHTGSLNDEWLMAADLIVASPGIALAHPSLSAAADAGIEIVGDIELFCREAQAPIVAITGSNGKSTVTTLVGEMAKAAGVNVGVGGNIGLPALMLLDDECELYVLELSSFQLETTSSLQAVAATILNVTEDHMDRYPFGLQQYRAAKLRIYENAKVCVVNADDALTMPIRGADERCVSFGVNMGDYHLNHQQGETWLRVKGEKVLNVKEMKLSGQHNYTNALAALALADAAGLPRASSLKALTTFTGLPHRFEVVLEHNGVRWINDSKATNVGSTEAALNGLHVDGTLHLLLGGDGKSADFSPLARYLNGDNVRLYCFGRDGAQLAALRPEVAEQTETMEQAMRLLAPRVQPGDMVLLSPACASLDQFKNFEQRGNEFARLAKELG | 4.445 ± 0.041 h | 4.9241 ± 0.00076 h | 5.5 ± 0.35 h | 4.73 ± 0.097 h |  | 5.38 ± 0.69 h | 12.18 ± 0.043 h | 4.57 ± 0.075 h | 9.03 ± 0.63 h | 5.815 ± 0.041 h | 5.112 ± 0.021 h | 
6 | MSDLLCSAKLGAMTLALLLSATSLSALASVTPDRTRLIFNESDKSISVTLRNNDPKLPYLAQSWIEDEKGNKITSPLTVLPPVQRIDSMMNGQVKVQGMPDINKLPADRESMFYFNVREIPPKSNKPNTLQIALQTRIKLFWRPKALEKVSMKSPWQHKVTLTRSGQAFTVNNPTPYYVIISNASAQKNGNPAAGFSPLVIEPKTTVPLNVKMDSVPVLTYVNDFGARMPLFFQCNGNSCQVDEEQSRKG |  |  |  |  |  |  |  |  |  | 4.16 h |  | 
7 | MSDMNNPADDNNGAMDDLWAEALSEQKSTSSKSAAETVFQQFGGGDVSGTLQDIDLIMDIPVKLTVELGRTRMTIKELLRLTQGSVVALDGLAGEPLDILINGYLIAQGEVVVVADKYGVRITDIITPSERMRRLSR |  |  |  | > 8 h | 2.75 ± 0.5 h | 4.23 ± 0.055 h | 7.08 ± 1.4 h |  |  |  | 5.45 ± 0.45 h | 
8 | MTPFMTEDFLLDTEFARRLYHDYAKDQPIFDYHCHLPPQQIAEDYRFKNLYDIWLKGDHYKWRAMRTNGVAERLCTGDASDREKFDAWAATVPHTIGNPLYHWTHLELRRPFGITGKLLSPSTADEIWNECNELLAQDNFSARGIMQQMNVKMVGTTDDPIDSLEHHAEIAKDGSFTIKVLPSWRPDKAFNIEQATFNDYMAKLGEVSDTDIRRFADLQTALTKRLDHFAAHGCKVSDHALDVVMFAEANEAELDSILARRLAGETLSEHEVAQFKTAVLVFLGAEYARRGWVQQYHIGALRNNNLRQFKLLGPDVGFDSINDRPMAEELSKLLSKQNEENLLPKTILYCLNPRDNEVLGTMIGNFQGEGMPGKMQFGSGWWFNDQKDGMERQMTQLAQLGLLSRFVGMLTDSRSFLSYTRHEYFRRILCQMIGRWVEAGEAPADINLLGEMVKNICFNNARDYFAIELN [P0A8G3] | 4.13 ± 0.56 h | 4.83 ± 1.5 h | 4.12 ± 0.18 h | 3.84 ± 0.12 h | 2.87 ± 0.56 h | 5.94 ± 0.12 h | 11.9 ± 0.95 h | 4.02 ± 0.48 h | 6.3 ± 0.21 h | 5.26 ± 0.087 h | 4.91 ± 0.32 h | 9.95 ± 0.88 h
